Measured values: publication PMC3597659
Where two headings read alike, the source gives them in different places.

How the values were obtained:
HMGB1-WT [1] = target: T1, HMGB1-WT (Homo sapiens, UniProt P09429 2-215); experiment: fluorescence anisotropy
RAG1c (core RAG1) [2] = target: T2, RAG1c (core RAG1) (Mus musculus, UniProt P15919 384-1008); experiment: fluorescence anisotropy
T2 sequence: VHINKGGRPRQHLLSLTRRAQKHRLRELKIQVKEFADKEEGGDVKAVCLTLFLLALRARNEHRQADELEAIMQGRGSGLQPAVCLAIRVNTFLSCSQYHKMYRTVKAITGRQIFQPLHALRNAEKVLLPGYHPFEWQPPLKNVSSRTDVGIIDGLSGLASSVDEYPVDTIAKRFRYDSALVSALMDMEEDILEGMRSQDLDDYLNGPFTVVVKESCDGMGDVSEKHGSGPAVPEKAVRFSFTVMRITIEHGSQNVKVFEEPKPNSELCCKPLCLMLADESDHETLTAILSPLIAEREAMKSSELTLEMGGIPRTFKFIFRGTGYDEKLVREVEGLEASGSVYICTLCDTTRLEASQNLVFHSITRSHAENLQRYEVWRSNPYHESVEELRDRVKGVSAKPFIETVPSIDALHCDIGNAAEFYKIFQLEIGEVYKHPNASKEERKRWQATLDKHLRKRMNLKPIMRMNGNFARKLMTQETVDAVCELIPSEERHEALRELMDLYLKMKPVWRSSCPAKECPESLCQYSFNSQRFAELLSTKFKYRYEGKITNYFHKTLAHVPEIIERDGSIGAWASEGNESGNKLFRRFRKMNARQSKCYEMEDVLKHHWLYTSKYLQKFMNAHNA

[3] = target: HMGB1-A488;RAG1c (core RAG1) (Homo sapiens;Mus musculus, UniProt P09429;P15919 2-215;384-1008, C23A;A34C;C45A;C106A|); experiment: fluorescence anisotropy
HMGB1-A488;RAG1c (core RAG1), sequence (P09429 2-215 C23A/A34C/C45A/C106A, one chain of several): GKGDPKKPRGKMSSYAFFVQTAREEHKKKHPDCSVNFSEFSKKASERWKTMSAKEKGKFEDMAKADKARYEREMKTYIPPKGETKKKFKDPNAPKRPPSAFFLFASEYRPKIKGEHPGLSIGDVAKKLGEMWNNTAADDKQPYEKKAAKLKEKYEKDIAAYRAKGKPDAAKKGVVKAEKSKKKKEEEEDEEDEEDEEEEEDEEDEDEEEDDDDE

RAG1c (core RAG1) [4] = target: T2, RAG1c (core RAG1); experiment: fluorescence anisotropy; remark: listed apart in the source
HMGB1-WT [5] = target: T1, HMGB1-WT; experiment: fluorescence anisotropy; remark: listed apart in the source
[6] = target: HMGB1-WT;RAG1c (core RAG1);GST-RAG2c (core RAG2) (Homo sapiens;Mus musculus;Mus musculus, UniProt P09429;P15919;P21784 2-215;384-1008;1-387, ||); experiment: EMSA
HMGB1-WT;RAG1c (core RAG1);GST-RAG2c (core RAG2), sequence (P09429 2-215, chain 1 of 2): as the sequence (P09429 2-215 C23A/A34C/C45A/C106A, one chain of several) above, with A22C, C33A, A44C, A105C counted along it
HMGB1-WT;RAG1c (core RAG1);GST-RAG2c (core RAG2), sequence (P21784 1-387, chain 3 of 2): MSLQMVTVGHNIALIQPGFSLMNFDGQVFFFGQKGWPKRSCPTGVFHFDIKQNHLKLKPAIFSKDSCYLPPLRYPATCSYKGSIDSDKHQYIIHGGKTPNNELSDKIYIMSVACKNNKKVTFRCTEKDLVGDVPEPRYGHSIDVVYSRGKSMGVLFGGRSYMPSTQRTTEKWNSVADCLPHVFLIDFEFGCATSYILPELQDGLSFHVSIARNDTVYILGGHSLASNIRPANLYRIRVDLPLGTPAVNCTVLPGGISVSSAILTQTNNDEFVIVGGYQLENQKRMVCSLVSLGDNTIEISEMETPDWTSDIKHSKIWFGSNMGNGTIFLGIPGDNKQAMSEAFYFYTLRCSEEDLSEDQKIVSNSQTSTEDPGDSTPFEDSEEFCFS

[7] = target: T3, HMGB1-WT;RAG1c (core RAG1) (Homo sapiens;Mus musculus, UniProt P09429;P15919 2-215;384-1008, |); experiment: pull-down
T3 sequence (P09429 2-215, one chain of several): as the sequence (P09429 2-215 C23A/A34C/C45A/C106A, one chain of several) above, with A22C, C33A, A44C, A105C counted along it

HMGB1-WT [8] = target: T1, HMGB1-WT; experiment: pull-down
[9] = target: T3, HMGB1-WT;RAG1c (core RAG1); experiment: pull-down; remark: listed apart in the source
HMGB1-A488 = HMGB1-A488 (Homo sapiens, UniProt P09429 2-215, C23A;A34C;C45A;C106A); experiment: EMSA
HMGB1-A488, sequence (P09429 2-215 C23A/A34C/C45A/C106A): as the sequence (P09429 2-215 C23A/A34C/C45A/C106A, one chain of several) above

T1 sequence (P09429 2-215): as the sequence (P09429 2-215 C23A/A34C/C45A/C106A, one chain of several) above, with A22C, C33A, A44C, A105C counted along it

B1: 23MUT-A488 (dsDNA)
DNA 1: GATCTGGCCTGTCTTAACGCAGTATGGAAGCTCAATCTGAACTCTGTGTCTCTGATCGAGCGGAG
DNA 2: CTCCGCTCGATCAGAGACACAGAGTTCAGATTGAGCTTCCATACTGCGTTAAGACAGGCCAGATC
Work on B1 yielded a Kd (HMGB1-WT [1]) of 66 nM and a Kd (RAG1c (core RAG1) [2]) of 104 nM.

B2: 23MUT (dsDNA)
DNA 1: B1 DNA 1
DNA 2: B1 DNA 2
B2: binds [3].

B3: 23RSS-A488 (dsDNA)
DNA 1: GATCTGGCCTGTCTTACACAGTGATGGAAGCTCAATCTGAACTCTGACAAAAACCTCGAGCGGAG
DNA 2: CTCCGCTCGAGGTTTTTGTCAGAGTTCAGATTGAGCTTCCATCACTGTGTAAGACAGGCCAGATC
B3 was tested, and the Kd (RAG1c (core RAG1) [4]) was 78 nM and the Kd (HMGB1-WT [5]) was 57 nM.

B4: 23RSS (dsDNA)
DNA 1: B3 DNA 1
DNA 2: B3 DNA 2
B4: binds [3].

B5: 32P-23RSS (dsDNA)
DNA 1: B3 DNA 1
DNA 2: B3 DNA 2
B5: binds [6].

B6: 23RSS-biotin (dsDNA)
DNA 1: B3 DNA 1
DNA 2: B3 DNA 2
B6: binds [7].

B7: 23SCR-biotin (dsDNA)
DNA 1: GCTGCGTCTCAAGTTACGCTGCGAGGAATCCTGGTAAGATCTGCGTTAAGTCGGATTCATCTACG
DNA 2: CGTAGATGAATCCGACTTAACGCAGATCTTACCAGGATTCCTCGCAGCGTAACTTGAGACGCAGC
B7: binds (HMGB1-WT [8]); binds [9].

B8: 23SCR (dsDNA)
DNA 1: B7 DNA 1
DNA 2: B7 DNA 2
B8: binds [3].

B9: four-way junction (4WJ) (structured_DNA)
DNA 1: CCTCCGTCCTAGCAAGGGGCTGCTACCGGAAGGG
DNA 2: CCCTTCCGGTAGCAGCCTGAGCGGTGGTTGAAGG
DNA 3: CCTTCAACCACCGCTCAACTCAACTGCAGTCTGG
DNA 4: CCAGACTGCAGTTGAGTCCTTGCTAGGACGGAGG
B9: binds (HMGB1-A488).
